In publication PMC4577212, “X-Ray Structure and Mutagenesis Studies of the N-Isopropylammelide Isopropylaminohydrolase, AtzC” (PLoS ONE, 2015):

B1: N-isopropylammelide isopropylaminohydrolase AtzC from Pseudomonas sp. strain ADP, His-tagged (enzyme, UniProt O52063 1-403, looked up)
chain: MSKDFDLIIRNAYLSEKDSVYDIGIVGDRIIKIEAKIEGTVKDEIDAKGNLVSPGFVDAHTHMDKSFTSTGERLPKFWSRPYTRDAAIEDGLKYYKNATHEEIKRHVIEHAHMQVLHGTLYTRTHVDVDSVAKTKAVEAVLEAKEELKDLIDIQVVAFAQSGFFVDLESESLIRKSLDMGCDLVGGVDPATRENNVEGSLDLCFKLAKEYDVDIDYHIHDIGTVGVYSINRLAQKTIENGYKGRVTTSHAWCFADAPSEWLDEAIPLYKDSGMKFVTCFSSTPPTMPVIKLLEAGINLGCASDNIRDFWVPFGNGDMVQGALIETQRLELKTNRDLGLIWKMITSEGARVLGIEKNYGIEVGKKADLVVLNSLSPQWAIIDQAKRLCVIKNGRIIVKDEVIVA
notes: AtzC, N-isopropylammelide isopropylaminohydrolase (E.C. 3.5.99.4), Pseudomonas sp. strain ADP; The tag carries a thrombin site; also called wild-type AtzC; tagged AtzC protein; source: E. coli BL21 (λDE3), purified (Ni-NTA, Superdex 200 SEC); not shown: His-tag, N-terminal, kept
B2: N-isopropylammelide isopropylaminohydrolase AtzC from Pseudomonas sp. strain ADP, thrombin-treated (His-tag removed) (enzyme, UniProt O52063 1-403, looked up)
chain: B1 chain
notes: AtzC, N-isopropylammelide isopropylaminohydrolase (E.C. 3.5.99.4), Pseudomonas sp. strain ADP; unmodified atzC gene (GenBank U66917.2) in pETCC2; tag removed by thrombin in the crystallisation sample without further purification; One Zn2+ ion per monomer; malonate in the active site of the crystal; also called WT; native protein; source: E. coli BL21 (λDE3), purified (Ni-NTA, Superdex 200 SEC), …

What was measured:
[1] = biological target: the molecule itself; experiment: SEC; Superdex 200 prep-grade, 130 mL column, 50 mM TRIS pH 7.5, 100 mM NaCl; native molecular mass of ~210 kDa
[2] = biological target: the molecule itself; experiment: crystal structure; thrombin-treated protein, 2.4 M sodium malonate pH 7; space group C2, half of the tetramer in the asymmetric unit; 1.84 Å; oligomer assessed with PISA

Row | Protein | stoichiometry N [1] | stoichiometry N [2]
1 | B1 | 4 | –
2 | B2 | – | 4
